Laboratory results published in patent US20170342144A1 (Sanofi, published 2017).

T1: human TGFβ2 (human, UniProt P61812 303-414)
T1 construct: also called TGFβ2 homodimer
T1 sequence: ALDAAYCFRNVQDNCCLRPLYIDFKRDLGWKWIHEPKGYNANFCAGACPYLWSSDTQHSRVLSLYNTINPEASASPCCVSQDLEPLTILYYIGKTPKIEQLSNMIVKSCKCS

T2: human TGFβ3 (human, UniProt P10600 301-412)
T2 sequence: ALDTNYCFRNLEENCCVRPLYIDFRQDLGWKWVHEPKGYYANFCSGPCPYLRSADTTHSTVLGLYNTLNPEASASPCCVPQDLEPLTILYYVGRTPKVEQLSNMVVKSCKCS


Columns and labels:
Experiment in all cases: Biacore off-rate vs wt GC1008, 50 nM
human TGFβ2 = molecular target: T1, human TGFβ2
Description: (§1) Plasmids encoding either the GC1008 heavy chain or light chain were used as a template in PCR-based mutagenesis reactions. Mutations to the encoding DNA were made to create 155 single amino acid substitutions of the encoded heavy chain amino acid sequence and one single amino acid substitution of the encoded light chain amino acid sequence. A QuikChange® Lightning Site-Directed Mutagenesis kit (Agilent Technologies, Santa Clara Calif.) was used according to the manufacturer's instructions to create DNA mutations using a set of forward and reverse primers, either designed for a specific amino acid or for all 20 amino acids with a degenerate codon (NNK). After sequencing confirmation, identified mutant DNA was paired with a wild-type light or heavy chain DNA for transfection into an Expi293F™ host cell suspension (Life Techonologies Corp., Grand Island, N.Y.). At 4 days post-transfection, conditioned media (1 mL) was harvested and purified using a 1 mL Protein A PhyTip® column (PhyNexus, Inc., San Jose, Calif.) and a PureSpeed™ 12-channel pipette (Rainin Instrument LLC, Oakland, Calif.). Purified variant antibody samples were analyzed in duplicate on a Biacore® 3000 (GE Healthcare) at 50 nM concentrations, using the 100 RU level TGFβ1, 2, and 3 immobilized surfaces. The off-rate (kd) of the variants was divided by the kd of the wild-type control to obtain the fold change in the kd. […] A heat map was generated to visualize the results. Variants that completely lost affinity for TGFβ were shown in red without numbers.

human TGFβ1 = molecular target: T3, human TGFβ1 (human, UniProt P01137 279-390)
T3 construct: also called TGFβ1 homodimer
T3 sequence (P01137 279-390 limits assumed): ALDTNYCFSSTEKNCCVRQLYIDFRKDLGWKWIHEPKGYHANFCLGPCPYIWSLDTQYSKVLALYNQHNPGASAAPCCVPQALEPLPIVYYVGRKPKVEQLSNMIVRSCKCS
Description: as §1

human TGFβ3 = molecular target: T2, human TGFβ3
Description: as §1

| Binder | kd var/kd wt (human TGFβ2) | kd var/kd wt (human TGFβ1) | kd var/kd wt (human TGFβ3) |
| --- | --- | --- | --- |
| D56P (antibody, V domains shown, GC1008 IgG4 variant) VH: QVQLVQSGAEVKKPGSSVKVSCKASGYTFSSNVISWVRQAPGQGLEWMGGVIPIVPIANYAQRFKGRVTITADESTSTTYMELSSLRSEDTAVYYCASTLGLVLDAMDYWGQGTLVTVSS VL: ETVLTQSPGTLSLSPGERATLSCRASQSLGSSYLAWYQQKPGQAPRLLIYGASSRAPGIPDRFSGSGSGTDFTLTISRLEPEDFAVYYCQQYADSPITFGQGTRLEIK | 1.9 | – | – |
| I52P (antibody, V domains shown, GC1008 IgG4 variant) VH: QVQLVQSGAEVKKPGSSVKVSCKASGYTFSSNVISWVRQAPGQGLEWMGGVPPIVDIANYAQRFKGRVTITADESTSTTYMELSSLRSEDTAVYYCASTLGLVLDAMDYWGQGTLVTVSS VL: ETVLTQSPGTLSLSPGERATLSCRASQSLGSSYLAWYQQKPGQAPRLLIYGASSRAPGIPDRFSGSGSGTDFTLTISRLEPEDFAVYYCQQYADSPITFGQGTRLEIK | 1.9 | – | – |
| I54G (antibody, V domains shown, GC1008 IgG4 variant) VH: QVQLVQSGAEVKKPGSSVKVSCKASGYTFSSNVISWVRQAPGQGLEWMGGVIPGVDIANYAQRFKGRVTITADESTSTTYMELSSLRSEDTAVYYCASTLGLVLDAMDYWGQGTLVTVSS VL: ETVLTQSPGTLSLSPGERATLSCRASQSLGSSYLAWYQQKPGQAPRLLIYGASSRAPGIPDRFSGSGSGTDFTLTISRLEPEDFAVYYCQQYADSPITFGQGTRLEIK | 1.8 | – | – |
| S30A (antibody, V domains shown, GC1008 IgG4 variant) VH: QVQLVQSGAEVKKPGSSVKVSCKASGYTFASNVISWVRQAPGQGLEWMGGVIPIVDIANYAQRFKGRVTITADESTSTTYMELSSLRSEDTAVYYCASTLGLVLDAMDYWGQGTLVTVSS VL: ETVLTQSPGTLSLSPGERATLSCRASQSLGSSYLAWYQQKPGQAPRLLIYGASSRAPGIPDRFSGSGSGTDFTLTISRLEPEDFAVYYCQQYADSPITFGQGTRLEIK | – | 0.7 | – |
| E74D (antibody, V domains shown, GC1008 IgG4 variant) VH: QVQLVQSGAEVKKPGSSVKVSCKASGYTFSSNVISWVRQAPGQGLEWMGGVIPIVDIANYAQRFKGRVTITADDSTSTTYMELSSLRSEDTAVYYCASTLGLVLDAMDYWGQGTLVTVSS VL: ETVLTQSPGTLSLSPGERATLSCRASQSLGSSYLAWYQQKPGQAPRLLIYGASSRAPGIPDRFSGSGSGTDFTLTISRLEPEDFAVYYCQQYADSPITFGQGTRLEIK | 0.8 | 0.9 | – |
| V55M (antibody, V domains shown, GC1008 IgG4 variant) VH: QVQLVQSGAEVKKPGSSVKVSCKASGYTFSSNVISWVRQAPGQGLEWMGGVIPIMDIANYAQRFKGRVTITADESTSTTYMELSSLRSEDTAVYYCASTLGLVLDAMDYWGQGTLVTVSS VL: ETVLTQSPGTLSLSPGERATLSCRASQSLGSSYLAWYQQKPGQAPRLLIYGASSRAPGIPDRFSGSGSGTDFTLTISRLEPEDFAVYYCQQYADSPITFGQGTRLEIK | 1.7 | – | – |
| I52F (antibody, V domains shown, GC1008 IgG4 variant) VH: QVQLVQSGAEVKKPGSSVKVSCKASGYTFSSNVISWVRQAPGQGLEWMGGVFPIVDIANYAQRFKGRVTITADESTSTTYMELSSLRSEDTAVYYCASTLGLVLDAMDYWGQGTLVTVSS VL: ETVLTQSPGTLSLSPGERATLSCRASQSLGSSYLAWYQQKPGQAPRLLIYGASSRAPGIPDRFSGSGSGTDFTLTISRLEPEDFAVYYCQQYADSPITFGQGTRLEIK | 1.9 | – | 2 |
| I54S (antibody, V domains shown, GC1008 IgG4 variant) VH: QVQLVQSGAEVKKPGSSVKVSCKASGYTFSSNVISWVRQAPGQGLEWMGGVIPSVDIANYAQRFKGRVTITADESTSTTYMELSSLRSEDTAVYYCASTLGLVLDAMDYWGQGTLVTVSS VL: ETVLTQSPGTLSLSPGERATLSCRASQSLGSSYLAWYQQKPGQAPRLLIYGASSRAPGIPDRFSGSGSGTDFTLTISRLEPEDFAVYYCQQYADSPITFGQGTRLEIK | 1.7 | – | – |
| E74A (antibody, V domains shown, GC1008 IgG4 variant) VH: QVQLVQSGAEVKKPGSSVKVSCKASGYTFSSNVISWVRQAPGQGLEWMGGVIPIVDIANYAQRFKGRVTITADASTSTTYMELSSLRSEDTAVYYCASTLGLVLDAMDYWGQGTLVTVSS VL: ETVLTQSPGTLSLSPGERATLSCRASQSLGSSYLAWYQQKPGQAPRLLIYGASSRAPGIPDRFSGSGSGTDFTLTISRLEPEDFAVYYCQQYADSPITFGQGTRLEIK | – | 1 | – |
| S30H (antibody, V domains shown, GC1008 IgG4 variant) VH: QVQLVQSGAEVKKPGSSVKVSCKASGYTFHSNVISWVRQAPGQGLEWMGGVIPIVDIANYAQRFKGRVTITADESTSTTYMELSSLRSEDTAVYYCASTLGLVLDAMDYWGQGTLVTVSS VL: ETVLTQSPGTLSLSPGERATLSCRASQSLGSSYLAWYQQKPGQAPRLLIYGASSRAPGIPDRFSGSGSGTDFTLTISRLEPEDFAVYYCQQYADSPITFGQGTRLEIK | 0.8 | 0.9 | – |
| I54Q (antibody, V domains shown, GC1008 IgG4 variant) VH: QVQLVQSGAEVKKPGSSVKVSCKASGYTFSSNVISWVRQAPGQGLEWMGGVIPQVDIANYAQRFKGRVTITADESTSTTYMELSSLRSEDTAVYYCASTLGLVLDAMDYWGQGTLVTVSS VL: ETVLTQSPGTLSLSPGERATLSCRASQSLGSSYLAWYQQKPGQAPRLLIYGASSRAPGIPDRFSGSGSGTDFTLTISRLEPEDFAVYYCQQYADSPITFGQGTRLEIK | 1.8 | – | – |

Second part, the binder after the results:

| kd var/kd wt (human TGFβ2) | kd var/kd wt (human TGFβ1) | kd var/kd wt (human TGFβ3) | Binder |
| --- | --- | --- | --- |
| 0.7 | 1 | – | E74G (antibody, V domains shown, GC1008 IgG4 variant) VH: QVQLVQSGAEVKKPGSSVKVSCKASGYTFSSNVISWVRQAPGQGLEWMGGVIPIVDIANYAQRFKGRVTITADGSTSTTYMELSSLRSEDTAVYYCASTLGLVLDAMDYWGQGTLVTVSS VL: ETVLTQSPGTLSLSPGERATLSCRASQSLGSSYLAWYQQKPGQAPRLLIYGASSRAPGIPDRFSGSGSGTDFTLTISRLEPEDFAVYYCQQYADSPITFGQGTRLEIK |
| 0.8 | 1.2 | – | E74Q (antibody, V domains shown, GC1008 IgG4 variant) VH: QVQLVQSGAEVKKPGSSVKVSCKASGYTFSSNVISWVRQAPGQGLEWMGGVIPIVDIANYAQRFKGRVTITADQSTSTTYMELSSLRSEDTAVYYCASTLGLVLDAMDYWGQGTLVTVSS VL: ETVLTQSPGTLSLSPGERATLSCRASQSLGSSYLAWYQQKPGQAPRLLIYGASSRAPGIPDRFSGSGSGTDFTLTISRLEPEDFAVYYCQQYADSPITFGQGTRLEIK |
| – | 0.8 | – | E74P (antibody, V domains shown, GC1008 IgG4 variant) VH: QVQLVQSGAEVKKPGSSVKVSCKASGYTFSSNVISWVRQAPGQGLEWMGGVIPIVDIANYAQRFKGRVTITADPSTSTTYMELSSLRSEDTAVYYCASTLGLVLDAMDYWGQGTLVTVSS VL: ETVLTQSPGTLSLSPGERATLSCRASQSLGSSYLAWYQQKPGQAPRLLIYGASSRAPGIPDRFSGSGSGTDFTLTISRLEPEDFAVYYCQQYADSPITFGQGTRLEIK |
| 0.7 | 0.8 | – | E74S (antibody, V domains shown, GC1008 IgG4 variant) VH: QVQLVQSGAEVKKPGSSVKVSCKASGYTFSSNVISWVRQAPGQGLEWMGGVIPIVDIANYAQRFKGRVTITADSSTSTTYMELSSLRSEDTAVYYCASTLGLVLDAMDYWGQGTLVTVSS VL: ETVLTQSPGTLSLSPGERATLSCRASQSLGSSYLAWYQQKPGQAPRLLIYGASSRAPGIPDRFSGSGSGTDFTLTISRLEPEDFAVYYCQQYADSPITFGQGTRLEIK |
| – | 0.7 | – | E74Y (antibody, V domains shown, GC1008 IgG4 variant) VH: QVQLVQSGAEVKKPGSSVKVSCKASGYTFSSNVISWVRQAPGQGLEWMGGVIPIVDIANYAQRFKGRVTITADYSTSTTYMELSSLRSEDTAVYYCASTLGLVLDAMDYWGQGTLVTVSS VL: ETVLTQSPGTLSLSPGERATLSCRASQSLGSSYLAWYQQKPGQAPRLLIYGASSRAPGIPDRFSGSGSGTDFTLTISRLEPEDFAVYYCQQYADSPITFGQGTRLEIK |
| – | 0.9 | – | E74H (antibody, V domains shown, GC1008 IgG4 variant) VH: QVQLVQSGAEVKKPGSSVKVSCKASGYTFSSNVISWVRQAPGQGLEWMGGVIPIVDIANYAQRFKGRVTITADHSTSTTYMELSSLRSEDTAVYYCASTLGLVLDAMDYWGQGTLVTVSS VL: ETVLTQSPGTLSLSPGERATLSCRASQSLGSSYLAWYQQKPGQAPRLLIYGASSRAPGIPDRFSGSGSGTDFTLTISRLEPEDFAVYYCQQYADSPITFGQGTRLEIK |
| 0.9 | 0.8 | – | E74T (antibody, V domains shown, GC1008 IgG4 variant) VH: QVQLVQSGAEVKKPGSSVKVSCKASGYTFSSNVISWVRQAPGQGLEWMGGVIPIVDIANYAQRFKGRVTITADTSTSTTYMELSSLRSEDTAVYYCASTLGLVLDAMDYWGQGTLVTVSS VL: ETVLTQSPGTLSLSPGERATLSCRASQSLGSSYLAWYQQKPGQAPRLLIYGASSRAPGIPDRFSGSGSGTDFTLTISRLEPEDFAVYYCQQYADSPITFGQGTRLEIK |
